Source: article PMC3388945

Molecular target: GST-TFIIB fusion protein (UniProt Q00403)
Test: pull-down

Chain of UniProt Q00403 (Q00403 whole entry, the tested form may be a part): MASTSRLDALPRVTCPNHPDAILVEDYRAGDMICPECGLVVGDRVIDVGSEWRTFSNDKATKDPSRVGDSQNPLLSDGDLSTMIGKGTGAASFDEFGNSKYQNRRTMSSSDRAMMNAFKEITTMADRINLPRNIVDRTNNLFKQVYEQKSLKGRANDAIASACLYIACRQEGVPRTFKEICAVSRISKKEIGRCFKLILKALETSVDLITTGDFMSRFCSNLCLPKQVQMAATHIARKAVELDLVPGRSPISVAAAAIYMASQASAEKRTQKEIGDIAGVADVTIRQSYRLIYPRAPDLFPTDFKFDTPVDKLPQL

Substance | percent of input precipitated
35S-IR2P(78-397)-NH (domain or fragment) | 12 % of input
35S-IR2P(78-438)-NH (domain or fragment) | 13 % of input
